From patent publication US20240117018A1

Experiments:
Experiment in all cases: cell-based or functional assay
[1] = target: HIV-1 Env of pseudovirus 89-F1_2_25 (HIV-1)
[2] = target: HIV-1 Env of pseudovirus CNE8 (HIV-1)
[3] = target: HIV-1 Env of pseudovirus BJOX009000.02.4 (HIV-1)
[4] = target: HIV-1 Env of pseudovirus T250-4 (HIV-1)
[5] = target: HIV-1 Env of pseudovirus 191955_A11 (HIV-1)
[6] = target: HIV-1 Env of pseudovirus 211-9 (HIV-1)
[7] = target: HIV-1 Env of pseudovirus T255-34 (HIV-1)
[8] = target: HIV-1 Env of pseudovirus P1981_C5_3 (HIV-1)
[9] = target: HIV-1 Env of pseudovirus 191084 B7-19 (HIV-1)
[10] = target: HIV-1 Env of pseudovirus C4118.c09 (HIV-1)
[11] = target: HIV-1 Env of pseudovirus BJOX010000.06.2 (HIV-1)

N49P19 (antibody)
neutralization IC50 [1]: > 50 µg/mL
neutralization IC80 [1]: > 50 µg/mL
neutralization MPI [1]: 7
neutralization IC50 [2]: 0.772 µg/mL
neutralization IC80 [2]: 4.84 µg/mL
neutralization MPI [2]: 97
neutralization IC50 [3]: 3.66 µg/mL
neutralization IC80 [3]: 25.6 µg/mL
neutralization MPI [3]: 87
neutralization IC50 [4]: > 50 µg/mL
neutralization IC80 [4]: > 50 µg/mL
neutralization MPI [4]: 7
neutralization IC50 [5]: > 50 µg/mL
neutralization IC80 [5]: > 50 µg/mL
neutralization MPI [5]: 16
neutralization IC50 [6]: 3.23 µg/mL
neutralization IC80 [6]: 19 µg/mL
neutralization MPI [6]: 93
neutralization IC50 [7]: 0.948 µg/mL
neutralization IC80 [7]: 6.22 µg/mL
neutralization MPI [7]: 97
neutralization IC50 [8]: 20.2 µg/mL
neutralization IC80 [8]: > 50 µg/mL
neutralization MPI [8]: 68
neutralization IC50 [9]: 0.357 µg/mL
neutralization IC80 [9]: 1.34 µg/mL
neutralization MPI [9]: 100
neutralization IC50 [10]: 0.386 µg/mL
neutralization IC80 [10]: 1.36 µg/mL
neutralization MPI [10]: 100
neutralization IC50 [11]: 4.16 µg/mL
neutralization IC80 [11]: 19.1 µg/mL
neutralization MPI [11]: 96

10-1074 (antibody)
IC50 neutralization (TZM.bl) [1]: > 50 µg/mL
IC80 neutralization (TZM.bl) [1]: > 50 µg/mL
IC50 neutralization (TZM.bl) [2]: > 50 µg/mL
IC80 neutralization (TZM.bl) [2]: > 50 µg/mL
IC50 neutralization (TZM.bl) [3]: > 50 µg/mL
IC80 neutralization (TZM.bl) [3]: > 50 µg/mL
IC50 neutralization (TZM.bl) [6]: 0.112 µg/mL
IC80 neutralization (TZM.bl) [6]: 0.425 µg/mL
IC50 neutralization (TZM.bl) [7]: > 50 µg/mL
IC80 neutralization (TZM.bl) [7]: > 50 µg/mL
IC50 neutralization (TZM.bl) [8]: 0.005 µg/mL
IC80 neutralization (TZM.bl) [8]: 0.017 µg/mL
IC50 neutralization (TZM.bl) [10]: > 50 µg/mL
IC80 neutralization (TZM.bl) [10]: > 50 µg/mL
IC50 neutralization (TZM.bl) [11]: > 50 µg/mL
IC80 neutralization (TZM.bl) [11]: > 50 µg/mL

N49P9 (antibody)
neutralization IC50 [1]: > 50 µg/mL
neutralization IC80 [1]: > 50 µg/mL
neutralization MPI [1]: 23
neutralization IC50 [2]: 0.056 µg/mL
neutralization IC80 [2]: 0.26 µg/mL
neutralization MPI [2]: 100
neutralization IC50 [3]: 0.727 µg/mL
neutralization IC80 [3]: 3.29 µg/mL
neutralization MPI [3]: 100
neutralization IC50 [4]: > 50 µg/mL
neutralization IC80 [4]: > 50 µg/mL
neutralization MPI [4]: 25
neutralization IC50 [5]: > 50 µg/mL
neutralization IC80 [5]: > 50 µg/mL
neutralization MPI [5]: 35
neutralization IC50 [6]: 0.136 µg/mL
neutralization IC80 [6]: 0.485 µg/mL
neutralization MPI [6]: 100
neutralization IC50 [7]: 0.051 µg/mL
neutralization IC80 [7]: 0.247 µg/mL
neutralization MPI [7]: 100
neutralization IC50 [8]: 0.308 µg/mL
neutralization IC80 [8]: 0.701 µg/mL
neutralization MPI [8]: 100
neutralization IC50 [9]: 0.042 µg/mL
neutralization IC80 [9]: 0.129 µg/mL
neutralization MPI [9]: 100
neutralization IC50 [10]: 0.072 µg/mL
neutralization IC80 [10]: 0.2 µg/mL
neutralization MPI [10]: 100
neutralization IC50 [11]: 0.482 µg/mL
neutralization IC80 [11]: 2.34 µg/mL
neutralization MPI [11]: 100

PG9 (antibody)
IC50 neutralization (TZM.bl) [1]: 0.668 µg/mL
IC80 neutralization (TZM.bl) [1]: 10.1 µg/mL
IC50 neutralization (TZM.bl) [3]: 1.73 µg/mL
IC80 neutralization (TZM.bl) [3]: 8.21 µg/mL
IC50 neutralization (TZM.bl) [6]: 0.049 µg/mL
IC80 neutralization (TZM.bl) [6]: 0.243 µg/mL
IC50 neutralization (TZM.bl) [7]: 0.023 µg/mL
IC80 neutralization (TZM.bl) [7]: 0.134 µg/mL
IC50 neutralization (TZM.bl) [8]: 0.258 µg/mL
IC80 neutralization (TZM.bl) [8]: 2.51 µg/mL
IC50 neutralization (TZM.bl) [10]: 0.068 µg/mL
IC80 neutralization (TZM.bl) [10]: 0.2 µg/mL
IC50 neutralization (TZM.bl) [11]: 0.154 µg/mL
IC80 neutralization (TZM.bl) [11]: 0.74 µg/mL
